Data on two substances can be found in article PMC2705190.

The term stoichiometry N denotes a count of units in the complex or per binding partner.

Experiment [1] has as its target HIV-1 integrase, wild type, full-length (HIV-1). In words: cross-linking; BS3 (2-0.2 mM), 3 µM IN or 1.5 µM each of two mutants, 0.75 M NaCl, 2 mM MgSO4, 25 µM ZnCl2, 25 mM Hepes-NaOH pH 7.5, 30 min at 18°C; SDS-PAGE, Sypro Orange.
The target is the same in experiment [2]. In words: SEC; analytical SEC of IN alone (or an equimolar mixture of two mutants); Shodex KW403-4F column on ice, 750 mM NaCl, 10 mM MgCl2, 20 mM HEPES-NaOH pH 7.0; 35 µl IN at 0.6 mg/ml with 25 µM ZnCl2 and 2.8 mM CHAPS.
For experiment [3] the target is unchanged. Put plainly: SEC; analytical SEC as for IN alone, but 0.3 mg/ml LEDGF IBD pre-incubated with IN on ice for 5 min before injection; Shodex KW403-4F on ice, 750 mM NaCl, 10 mM MgCl2, 20 mM HEPES-NaOH pH 7.0. In general terms: SEC sorts molecules by how far they enter the pores of the column.

“HIV-1 integrase, wild type, full-length (enzyme)”: the stoichiometry N in experiment [1] and in experiment [2] was 4 in each case.

In experiment [3], “integrase binding domain of lens epithelium derived growth factor (LEDGF IBD) (from UniProt O75475 1-435) (domain or fragment)” gave a stoichiometry N (per IN tetramer) of 4.
